Measurements taken from patent US20220401521A1 (NANJING HANXIN PHARMACEUTICAL TECHNOLOGY, published 2022).
No end group written: not given here.

Columns and labels:
[1] = molecular target: melanocortin receptor 2 (MC2R); assay: cell-based or functional assay
[2] = molecular target: melanocortin receptor 2 (MC2R); assay: cell-based or functional assay; remark: listed apart in the source

melanocortin receptor 2 (MC2R), sequence (Q01718 whole entry): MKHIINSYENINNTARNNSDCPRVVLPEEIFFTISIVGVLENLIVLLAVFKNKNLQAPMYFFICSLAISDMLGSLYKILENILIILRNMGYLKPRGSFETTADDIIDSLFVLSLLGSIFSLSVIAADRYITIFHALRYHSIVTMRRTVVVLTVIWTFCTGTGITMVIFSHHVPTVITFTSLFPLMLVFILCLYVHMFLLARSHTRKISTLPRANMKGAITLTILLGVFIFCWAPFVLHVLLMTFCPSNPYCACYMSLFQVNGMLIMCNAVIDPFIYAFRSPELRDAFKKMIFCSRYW

| activity of high-purity ACTH relative to low-purity ACTH (calcium ion signal, MC2R cells) [1] [fold] | EC50(nM), calcium ion signal in CHO-K1 cells expressing MC2R [2] [nM] | Binder |
| --- | --- | --- |
| 1.6 | 180 | SYSMEHFRWGKPVGKKRRPVKVYPNGAEDESAEAFPLEF (also: acetate salt) [high-purity ACTH (human sequence SEQ ID NO: 3, 99.88%)] |
|  | 288 | SYSMEHFRWGKPVGKKRRPVKVYPNGAEDESAEAFPLEF [low-purity ACTH (human sequence SEQ ID NO: 3, 75.72%)] |
